Paper PMC12678776

Legend:
[1] = system: ecHOP1-wHTH (SUMO-wHTH) (Ectocarpus); assay: EMSA; conditions: apparent Kd, Hill h = 1.7; 50 nM DNA; EMSA: 50 nM nucleic acid, protein 25 nM-2 uM, ~30 min at 4 C, 0.8% agarose in 0.2% TBE (so in the source) at 4 C, SYBR Gold; binding buffer, salt and pH not stated
[2] = molecular target: 2xStrepII-ecHOP1-HORMA (ecHOP1 residues 1-274) (Ectocarpus siliculosus); assay: ITC; 350 µM MBP-tagged CM titrated into 25 µM ecHOP1-HORMA in the cell; 50 mM HEPES pH 7.5, 150 mM NaCl, 1 mM EDTA; 25 °C; MicroCal PEAQ-ITC; triplicate

**Q.** For 167 bp Widom DNA, which Kd [1] is on record?
**A.** 0.25 µM

**Q.** For “His6-MBP-CM-R-A (ecRED1 closure motif A) (domain or fragment)”, which Kd [2] is on record?
**A.** 60.3 µM

**Q.** For “MBP-CM-H1-A (ecHOP1 isoform 1 closure motif A, residues 567-600) (domain or fragment)”, which Kd [2] is on record?
**A.** 7.2 µM

**Q.** How did the Kd [2] turn out when “MBP-CM-H1-B (ecHOP1 isoform 1 closure motif B, residues 665-694) (domain or fragment)” was run?
**A.** 10.6 µM
